Measurements from the supplement of paper PMC10567573.

B1: NCK2 (parent)
chain: YVERKNSLKKGSLVKNLKDTLGLG

Variants of: B1
Test: protein stability index of a GFP-peptide fusion (GPS, HEK-293T) (PSI 1-6); higher = more stable
Conditions: c terminus: a fixed tail appended
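Further: lentivirally expressed fusions sorted by FACS into six bins by GFP to DsRed ratio, PSI derived from sequencing read proportions per bin multiplied by bin number.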

Row | Variant | protein stability index
1 | YVLRKNSLKKGSLVKNLKDTLGLG [E3L] | 2.07
2 | YVWRKNSLKKGSLVKNLKDTLGLG [E3W] | 1.96
3 | YVSRKNSLKKGSLVKNLKDTLGLG [E3S] | 2.23
4 | YVHRKNSLKKGSLVKNLKDTLGLG [E3H] | 1.72
5 | YVDRKNSLKKGSLVKNLKDTLGLG [E3D] | 1.89
6 | YVYRKNSLKKGSLVKNLKDTLGLG [E3Y] | 1.63
7 | YVARKNSLKKGSLVKNLKDTLGLG [E3A] | 1.66
8 | YVQRKNSLKKGSLVKNLKDTLGLG [E3Q] | 1.96
9 | YVGRKNSLKKGSLVKNLKDTLGLG [E3G] | 1.41
10 | YVMRKNSLKKGSLVKNLKDTLGLG [E3M] | 2.11
11 | YVFRKNSLKKGSLVKNLKDTLGLG [E3F] | 2.01
12 | YVRRKNSLKKGSLVKNLKDTLGLG [E3R] | 2.52
13 | YVPRKNSLKKGSLVKNLKDTLGLG [E3P] | 1.65
14 | YVTRKNSLKKGSLVKNLKDTLGLG [E3T] | 1.78
15 | YVNRKNSLKKGSLVKNLKDTLGLG [E3N] | 2.04
16 | YVIRKNSLKKGSLVKNLKDTLGLG [E3I] | 2.1
17 | YVCRKNSLKKGSLVKNLKDTLGLG [E3C] | 1.83
18 | YVVRKNSLKKGSLVKNLKDTLGLG [E3V] | 1.9
19 | YVKRKNSLKKGSLVKNLKDTLGLG [E3K] | 2.23
20 | YGERKNSLKKGSLVKNLKDTLGLG [V2G] | 3.19
21 | YWERKNSLKKGSLVKNLKDTLGLG [V2W] | 2.49
22 | YYERKNSLKKGSLVKNLKDTLGLG [V2Y] | 3.01
23 | YCERKNSLKKGSLVKNLKDTLGLG [V2C] | 2.47
24 | YDERKNSLKKGSLVKNLKDTLGLG [V2D] | 3.38

Row | Variant | protein stability index
25 | YEERKNSLKKGSLVKNLKDTLGLG [V2E] | 4.17
26 | YSERKNSLKKGSLVKNLKDTLGLG [V2S] | 2.94
27 | YTERKNSLKKGSLVKNLKDTLGLG [V2T] | 3.44
28 | YKERKNSLKKGSLVKNLKDTLGLG [V2K] | 3.67
29 | YQERKNSLKKGSLVKNLKDTLGLG [V2Q] | 3.39
30 | YRERKNSLKKGSLVKNLKDTLGLG [V2R] | 3.41
31 | YAERKNSLKKGSLVKNLKDTLGLG [V2A] | 3.09
32 | YFERKNSLKKGSLVKNLKDTLGLG [V2F] | 2.44
33 | YPERKNSLKKGSLVKNLKDTLGLG [V2P] | 3.81
34 | YIERKNSLKKGSLVKNLKDTLGLG [V2I] | 2.84
35 | YMERKNSLKKGSLVKNLKDTLGLG [V2M] | 2.81
36 | YLERKNSLKKGSLVKNLKDTLGLG [V2L] | 2.71
37 | YHERKNSLKKGSLVKNLKDTLGLG [V2H] | 2.66
38 | YNERKNSLKKGSLVKNLKDTLGLG [V2N] | 3.59
39 | YVERMNSLKKGSLVKNLKDTLGLG [K5M] | 1.79
40 | YVERCNSLKKGSLVKNLKDTLGLG [K5C] | 1.75
41 | YVERVNSLKKGSLVKNLKDTLGLG [K5V] | 2.2
42 | YVERINSLKKGSLVKNLKDTLGLG [K5I] | 1.99
43 | YVERSNSLKKGSLVKNLKDTLGLG [K5S] | 2.24
44 | YVERWNSLKKGSLVKNLKDTLGLG [K5W] | 2.57
45 | YVERGNSLKKGSLVKNLKDTLGLG [K5G] | 2.34
46 | YVERHNSLKKGSLVKNLKDTLGLG [K5H] | 2.13
47 | YVERLNSLKKGSLVKNLKDTLGLG [K5L] | 1.51
48 | YVERANSLKKGSLVKNLKDTLGLG [K5A] | 2.12

Row | Variant | protein stability index
49 | YVERENSLKKGSLVKNLKDTLGLG [K5E] | 2.92
50 | YVERNNSLKKGSLVKNLKDTLGLG [K5N] | 2.4
51 | YVERTNSLKKGSLVKNLKDTLGLG [K5T] | 2.02
52 | YVERFNSLKKGSLVKNLKDTLGLG [K5F] | 2.58
53 | YVERQNSLKKGSLVKNLKDTLGLG [K5Q] | 2.39
54 | YVERDNSLKKGSLVKNLKDTLGLG [K5D] | 2.26
55 | YVERRNSLKKGSLVKNLKDTLGLG [K5R] | 2.52
56 | YVERYNSLKKGSLVKNLKDTLGLG [K5Y] | 2.84
57 | YVERPNSLKKGSLVKNLKDTLGLG [K5P] | 1.89
58 | YVERKDSLKKGSLVKNLKDTLGLG [N6D] | 2.74
59 | YVERKESLKKGSLVKNLKDTLGLG [N6E] | 2.85
60 | YVERKISLKKGSLVKNLKDTLGLG [N6I] | 2.39
61 | YVERKASLKKGSLVKNLKDTLGLG [N6A] | 2.24
62 | YVERKFSLKKGSLVKNLKDTLGLG [N6F] | 1.58
63 | YVERKCSLKKGSLVKNLKDTLGLG [N6C] | 1.73
64 | YVERKGSLKKGSLVKNLKDTLGLG [N6G] | 2.38
65 | YVERKKSLKKGSLVKNLKDTLGLG [N6K] | 2.67
66 | YVERKHSLKKGSLVKNLKDTLGLG [N6H] | 2.61
67 | YVERKLSLKKGSLVKNLKDTLGLG [N6L] | 1.1
68 | TVERKNSLKKGSLVKNLKDTLGLG [Y1T] | 3.65
69 | DVERKNSLKKGSLVKNLKDTLGLG [Y1D] | 4.13
70 | GVERKNSLKKGSLVKNLKDTLGLG [Y1G] | 3.92
71 | CVERKNSLKKGSLVKNLKDTLGLG [Y1C] | 3.41
72 | KVERKNSLKKGSLVKNLKDTLGLG [Y1K] | 3.86

Row | Variant | protein stability index
73 | VVERKNSLKKGSLVKNLKDTLGLG [Y1V] | 3.41
74 | AVERKNSLKKGSLVKNLKDTLGLG [Y1A] | 3.59
75 | FVERKNSLKKGSLVKNLKDTLGLG [Y1F] | 1.81
76 | IVERKNSLKKGSLVKNLKDTLGLG [Y1I] | 3.03
77 | NVERKNSLKKGSLVKNLKDTLGLG [Y1N] | 3.71
78 | MVERKNSLKKGSLVKNLKDTLGLG [Y1M] | 3.64
79 | RVERKNSLKKGSLVKNLKDTLGLG [Y1R] | 3.18
80 | QVERKNSLKKGSLVKNLKDTLGLG [Y1Q] | 4.01
81 | EVERKNSLKKGSLVKNLKDTLGLG [Y1E] | 4.06
82 | WVERKNSLKKGSLVKNLKDTLGLG [Y1W] | 2.29
83 | LVERKNSLKKGSLVKNLKDTLGLG [Y1L] | 3.28
84 | PVERKNSLKKGSLVKNLKDTLGLG [Y1P] | 3.8
85 | SVERKNSLKKGSLVKNLKDTLGLG [Y1S] | 3.3
86 | HVERKNSLKKGSLVKNLKDTLGLG [Y1H] | 4.01
87 | YVETKNSLKKGSLVKNLKDTLGLG [R4T] | 1.78
88 | YVEAKNSLKKGSLVKNLKDTLGLG [R4A] | 2.23
89 | YVEFKNSLKKGSLVKNLKDTLGLG [R4F] | 1.52
90 | YVENKNSLKKGSLVKNLKDTLGLG [R4N] | 2.48
91 | YVEDKNSLKKGSLVKNLKDTLGLG [R4D] | 2.67
92 | YVEVKNSLKKGSLVKNLKDTLGLG [R4V] | 1.78
93 | YVEEKNSLKKGSLVKNLKDTLGLG [R4E] | 2.42
94 | YVEYKNSLKKGSLVKNLKDTLGLG [R4Y] | 1.33
